In paper PMC5584224, “Peptide-based PET imaging of the tumor restricted IL13RA2 biomarker” (Oncotarget, 2017):
“And” between values parts separate entries of the source, which are not always exact repeats. Equal entries are not always repeated. Non-standard residues stand in square brackets, D forms with d. Residues, ends and D or L forms follow the SMILES beside them. *: point of attachment. Biotin = O=C1N[C@H]2[C@H](CS[C@H]2CCCCC(=O)*)N1; Ahx = NCCCCCC(=O)O

Legend:
[1] = cited from earlier work
Description: Pep-1L was conjugated with NOTA, a chelator that can form a six-coordinate complex with Cu-64 that results in a high stability constant (log K=21.6) by CPC scientific Inc.. […] The Cu-64 radiolabeling conditions for Pep-1L were well optimized in this work for high radiochemical purity of >98%, without any need for additional purification methodologies with a specific activity of 32-35 MBq/μg (Figure 1).

[2] = test system: B16F10-Tet-hIL13RA2 tumors; assay: microPET/CT imaging, ROI analysis, in doxycycline-inducible B16F10-Tet-hIL13RA2 tumor model; type: in vivo, mice
Method: (§1) 7 days after tumor cell implantations, mice were divided into induced and uninduced (control) groups (n=4/group). To induce hIL13RA2 expression, doxycycline was administered intraperitoneally (2.5 mg/mouse) every 12 hours for 2 days. After IL13RA2-induction, [^64Cu]Pep-1L was intravenously injected to mice bearing induced or control (uninduced) subcutaneous tumors and microPET/CT imaging was performed 4 h post intravenous injection. […] Other notable findings were that there was radiotracer accumulation in liver and kidney in both induced and control animals, which are primary organs for peptide clearance. […]
(§2) B16F10 murine melanoma cell line was cultured in DMEM base media. […] Cell number was calculated using a hemocytometer and required number of B16F10 cells was suspended in DMEM media. […]
(§3) Mice bearing subcutaneous tumors were grouped into two groups (n=4) and placed in an induction chamber containing ~2% isoflurane/oxygen then secured to a custom double bed for placement of tail vein catheters. […] Samples of tumor, blood, lung, liver, spleen, kidney, muscle and heart were harvested, weighed and then counted on the gamma counter with a standard dilution of the injectate. The percentage of the injected dose per gram of tissue (%ID/g) was calculated as described above with p values ≤ .05 considered statistically significant (n=4).

in vitro = conditions: human, human serum
Method: The in vitro serum stability of the radiotracer [^64Cu]Pep-1L in human serum was performed at different time points and was analyzed through radioTLC spotting (Figure 2).
Figure 2 In vitro serum stability of [^64Cu]Pep-1L Reverse-phase C18 radio-TLC analysis of [^64Cu]Pep-1L over a 24 hour period post production.
The in vitro serum stability of [^64Cu]Pep-1L was performed using human serum (Sigma Aldrich) following previously published methods [38, 48]. Approximately 0.037 MBq/10 μL of [^64Cu]Pep-1L was added to the serum vial, to a final volume of 100 μL and incubated at 37°C [35]. 1 μL of the sample mixture was removed and spotted on a reverse C18-TLC plate at 1 h, 2 h, 4 h, 18 h and 24 h after the radiotracer synthesis and the percentage of bound Cu-64 was determined through radioTLC analysis as mentioned above [48].

[3] = test system: IL13RA2-expressing G48 tumors; assay: Biodistribution in mice bearing IL13RA2-expressing G48 xenografts; type: in vivo; conditions: G48 tumor bearing mice, 24 h post injection, non-blockade vs blockade group
Method: (§4) Biodistribution studies with [^64Cu]Pep-1L were performed in mice bearing IL13RA2-expressing G48 tumors (n=4) to confirm in vivo binding. […] The uptake ratios for target to non-target (tumor: muscle) increased from 3.7 to 6.0 from 4 h to 24 h (Figure 4B).
(§5) Figure 4 In vivo properties of [^64Cu]Pep-1L (A) biodistribution and (B) tumor-to-muscle (target: nontarget) ratio of [^64Cu]Pep-1L in mice bearing IL13RA2-expressing tumor xenografts 4h and 24h post injection (n=4) with p values ≤ .05 considered statistically significant.
(§6) Athymic nude mice (Taconic Farms) were housed in a pathogen-free facility of the Animal Research Program at Wake Forest School of Medicine under a 12:12-h light/dark cycle and fed ad libitum. All animal experiments were conducted under IACUC approved protocols in compliance with the guidelines for the care and use of research animals established by Wake Forest Medical School Animal Studies Committee. IL13RA2-expressing G48 tumors cells (1 × 10^5 cells suspended in 10 μL) were implanted in the left flank of nude mice (25-30 g) as described previously. The presence of viable tumors was confirmed through bioluminescence imaging. Standard biodistribution studies were performed in the same nude mice with flank tumors (n=4) at 10-15 days after tumor implantation. Mice were anesthetized with 1% isoflurane-oxygen and approximately 3.7- 4.6 MBq of [^64Cu]Pep-1L was administered via tail vein injection. […] Peptide concentration of 15 mg/kg was used as the blocking agent and was intravenously injected via tail vein 15 min prior to the radiotracer. The tumor and organs of interest were dissected and gamma counted using Wallac 1480 Wizard gamma counter (Perkin Elmer, Turku, Finland). The concentration of the radioactivity in the tumor and organs were expressed in percentage injected dose per gram (%ID/g) of radioactivity with p values ≤ .05 considered statistically significant and uptake ratio of tumor-to-muscle was calculated.

[4] = as above; type: in vivo; conditions: athymic nude, mouse, in vivo, iv, total radioactivity
Method: as §4, §5, §6

in vivo = assay: in vivo; set-up: species or system mice; conditions: athymic nude, mouse, iv, total radioactivity, tumor uptake
Method: as §1, §2, §3

[5] = test system: IL13RA2-expressing G48 cells; assay: In vitro cell uptake assay with and without unlabeled Pep-1L blockade; type: cell-based, human
Method: Previously, we reported that this cell line contains about 4,000,000 IL13RA2 binding sites.
Figure 3 Cell uptake of [^64Cu]Pep-1L Uptake of [^64Cu]Pep-1L in IL13RA2-expressing G48 cells after 1, 3, and 4 h of exposure. […] The data were expressed as % injected dose (ID)/mg of protein present in each well with p values ≤ .005 considered statistically significant (n=6).
The in vitro reactivity, binding affinity and specificity for [^64Cu]Pep-1L were determined using human GBM cell line G48, following previously reported methods. 1 × 10^5 cells were then seeded into each well of a 6-well culture. G48 cells were incubated overnight at 37°C with 5% CO2 in an incubator. […] The radioactivity was counted using the Wallac 1480 Wizard gamma counter (Perkin Elmer, Turku, Finland). […]
The uptake data in each sample from each well and the standard counts for each condition were expressed as counts per minute (cpm) of activity and were decay corrected for elapsed time. The cpm values of each well were normalized to the amount of radioactivity added to each well and the protein concentration in the well and expressed as percent uptake relative to the control condition. The data were expressed as %ID/mg of protein present in each well with p values ≤ 0.005 considered statistically significant.

O=C(O)CN1CCN(CC(=O)O)CCN(CC(=O)O)CC1 [NOTA, 1,4,7-triazacyclononane-1,4,7-triacetic acid]
stability constant (log K) of six-coordinate complex with Cu-64 [1]: 21.6

CSCC[C@H](NC(=O)[C@H](CCC(=O)O)NC(=O)CNC(=O)[C@H](CS)NC(=O)[C@H](C)N)C(=O)NCC(=O)N[C@@H](Cc1c[nH]c2ccccc12)C(=O)N[C@H](C(=O)N[C@@H](CCCNC(=N)N)C(=O)N[C@@H](CS)C(=O)NCC(=O)NCC(=O)NCC(=O)N[C@@H](CO)C(=O)NCCCCCC(=O)N[C@@H](CCCCN)C(=O)N[C@@H](CCCCNC(=O)CCCC[C@@H]1SC[C@@H]2NC(=O)N[C@@H]21)C(N)=O)C(C)C [[^64Cu]Pep-1L, metal not drawn] (H-ACGEMGWVRCGGGS[Ahx]KK(Biotin)-NH2)
tumor accumulation, doxycycline-induced vs non-induced (ROI analysis of microPET/CT) ([2]; athymic nude mice, 4.62-5.5 MBq i.v., 20 min scan 4 h post injection, doxycycline 2.5 mg/mouse i.p. every 12 h for 2 days, n=4/group): ~ 3 fold | binding of induced vs uninduced tumors (PET/CT and post-necropsy biodistribution, abstract) ([2]; summary of PET/CT and post-necropsy biodistribution, doxycycline pretreatment): 3-4 fold | remaining at 24 h, 0.37 MBq/mL (in vitro): ~90% | blockade of tumor uptake by pre-injected unlabeled peptide [3]: 5 fold and 3 fold | tissue to tissue ratio at 4 h [4]: 3.7 | tissue to tissue ratio at 24 h [4]: 6 | tissue uptake at 24 h ([4]; blood uptake, 24 h non-blockade): 0.62 ± 0.579 %ID/g | tissue uptake at 4 h ([4]; brain uptake, 4 h): ~0.013 %ID/g | tissue uptake at 24 h ([4]; brain uptake, 24 h): ~0.009 %ID/g | tissue uptake at 24 h ([4]; heart uptake, 24 h non-blockade): 1.21 ± 1.01 %ID/g | tissue uptake at 24 h ([4]; kidney uptake, 24 h non-blockade): 17.4 ± 1.41 %ID/g | tissue uptake at 24 h ([4]; liver uptake, 24 h non-blockade): 9.86 ± 1.59 %ID/g | tissue uptake at 24 h ([4]; lung uptake, 24 h non-blockade): 3.58 ± 1.08 %ID/g | tissue uptake at 24 h ([4]; muscle uptake, 24 h non-blockade): 0.41 ± 0.038 %ID/g | tissue uptake at 24 h ([4]; tumor uptake, 24 h non-blockade): 2.43 ± 0.626 %ID/g | tissue uptake at 4 h ([4]; nude mice with G48 flank tumors, 3.7-4.6 MBq i.v. tail vein, 4 h post injection, gamma counting, mean ± SD, n=4, read-out: tumor uptake, 4 h): 1.38 ± 0.09 %ID/g | tissue uptake at 4 h (in vivo; doxycycline-induced tumors): 14.1 ± 0.246 %ID/g | tissue uptake at 4 h (in vivo; non-induced tumors): 4.179 ± 0.007 %ID/g | cell uptake in G48 cells under binding site blockade with unlabeled Pep-1L ([5]; 0.0185 MBq/well, 37°C, 1, 3, 4 h, blocker 5 μM (50x excess) unlabeled peptide 15 min before tracer, gamma counting, %ID/mg protein): significantly inhibited | course of cell uptake over time ([5]; 37°C, 1 to 4 h exposure): continued increase
